Source: patent EP1146896B1
One block for each substance: values may come before it.

How the values were obtained:
[1] = target: B28-N^ε-myristoyl-Lys^B28Pro^B29 human insulin analog (human); test: static light scattering, self-association, pH 7.5
[2] = target: B28-N^ε-myristoyl-Lys^B28Pro^B29 human insulin analog (human); test: static light scattering, self-association, pH 7.8
[3] = target: B28-N^ε-myristoyl-Lys^B28Pro^B29 human insulin analog (human); test: static light scattering, self-association, pH 8.0
[4] = target: B28-N^ε-myristoyl-Lys^B28Pro^B29 human insulin analog (human); test: static light scattering, self-association, pH 8.3
[5] = target: B28-N^ε-myristoyl-Lys^B28Pro^B29 human insulin analog (human); test: static light scattering, self-association, pH 8.5
[6] = target: B28-N^ε-myristoyl-Lys^B28Pro^B29 human insulin analog (human); test: sedimentation velocity analysed with DCDT Plus, self-association, pH 8.0
[7] = target: B28-N^ε-myristoyl-Lys^B28Pro^B29 human insulin analog (human); test: sedimentation velocity, self-association, 10 mM Tris pH 7.96 (monomer 6,018 g/mole, theoretical hexamer 36,108 g/mole)
[8] = target: B28-N^ε-myristoyl-Lys^B28Pro^B29 human insulin analog (human); test: sedimentation velocity, self-association, 7 mM phosphate pH 7.95 (monomer 6,018 g/mole, theoretical hexamer 36,108 g/mole)
[9] = target: B28-N^ε-octanoyl-Lys^B28Pro^B29 human insulin analog (human); test: sedimentation velocity (DCDT Plus), self-association, pH 8.0, first fit
[10] = target: B28-N^ε-octanoyl-Lys^B28Pro^B29 human insulin analog (human); test: sedimentation velocity (DCDT Plus), self-association, pH 8.0, refined fit
[11] = target: B29-N^ε-myristoyl-des(B30) human insulin (human) (UniProt P01308); test: sedimentation velocity (DCDT Plus, single Gaussian fit), self-association, pH 8.4
[12] = target: B29-N^ε-myristoyl-des(B30) human insulin (human) (UniProt P01308); test: sedimentation velocity (DCDT Plus, single Gaussian fit), self-association, pH 7.97
[13] = target: B29-N^ε-myristoyl-des(B30) human insulin (human) (UniProt P01308); test: sedimentation velocity (DCDT Plus, single Gaussian fit), self-association, pH 7.5; heterogeneous
[14] = target: B29-N^ε-myristoyl-des(B30) human insulin (human) (UniProt P01308); test: sedimentation velocity, area of the profile compared with an ideal hypothetical hexamer curve, self-association, pH 8.0 (7.97)
[15] = target: B29-N^ε-octanoyl-Asp^B28 human insulin analog (human); test: sedimentation velocity (DCDT Plus, two Gaussian fit), self-association, pH 8.0
[16] = target: B29-N^ε-octanoyl-Asp^B28 human insulin analog (human); test: sedimentation velocity (DCDT Plus, two Gaussian fit), self-association, pH 7.5; hexamer said not to be dominant
[17] = target: B29-N^ε-octanoyl-Asp^B28 human insulin analog (human); test: sedimentation velocity (DCDT Plus, two Gaussian fit), self-association, pH 7.5; the model is the 27,700 g/mole species, not hexamer

- Mw (weight-average molecular weight of association) [1]: 127000 g/mol
- Mw (weight-average molecular weight of association) [2]: 60700 g/mol
- Mw (weight-average molecular weight of association) [3]: 40400 g/mol
- Mw (weight-average molecular weight of association) [4]: 40400 g/mol
- Mw (weight-average molecular weight of association) [5]: 49100 g/mol
- molecular weight of association [6]: 34400 grams/mole
- percent of data described by the hexamer model [6]: > 96%
- Calculated MW of association [7]: 35000 g/mol
- Calculated MW of association [8]: 34300 g/mol
Substance: B28-N^ε-myristoyl-Lys^B28Pro^B29 human insulin analog (ligand)

- molecular weight of association [9]: 35300 g/mol
- molecular weight of association [10]: 40800 g/mol
- percent of data described by the hexamer model [10]: > 94%
Substance: B28-N^ε-octanoyl-Lys^B28Pro^B29 human insulin analog (ligand)

- MW (g/mole) of association [11]: 39000 g/mol
- MW (g/mole) of association [12]: 30700 g/mol
- MW (g/mole) of association [13]: 23000 g/mol
- percent in the hexamer association state [14]: > 92 percent
Substance: B29-N^ε-myristoyl-des(B30) human insulin (from UniProt P01308 25-110; P01308 25-110) (ligand)

- molecular weight of association [15]: 33200 g/mol
- percent of data described by the hexamer model [15]: 85%
- molecular weight of association [16]: 27700 g/mol
- percent of data described by the model [17]: > 92%
Substance: B29-N^ε-octanoyl-Asp^B28 human insulin analog (ligand)
